Key:
[1] = biological target: T1, CXCL11 (Homo sapiens, UniProt O14625); test: ELISA
T1 chain: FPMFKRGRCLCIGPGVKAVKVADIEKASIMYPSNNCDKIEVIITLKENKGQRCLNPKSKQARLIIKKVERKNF

[2] = biological target: CXCL10 (Homo sapiens, UniProt P02778); test: ELISA
Sequence of CXCL10 (P02778 22-94): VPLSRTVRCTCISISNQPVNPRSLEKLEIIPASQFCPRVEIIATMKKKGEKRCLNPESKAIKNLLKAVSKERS

Kd [1]: 67 nM
Kd [2]: 68 nM
B1: Fg β15-66 15-66 (protein)
chain: MKHLLLLLLCVFLVKSQGVNDNEEGFFSARGHRPLDKKREEAPSLRPAPPPI
